Test results reported in US20190389955A1.

Molecular target: human FLT3/FLK2 receptor protein (human) (UniProt P36888)
Assay: flow cytometry on SP2/0 cells expressing human FLT3/FLK2; same table: unstained SP2/0 clone 3 6063, secondary Ab 9522

Sequence of human FLT3/FLK2 receptor protein (human) (P36888 27-993): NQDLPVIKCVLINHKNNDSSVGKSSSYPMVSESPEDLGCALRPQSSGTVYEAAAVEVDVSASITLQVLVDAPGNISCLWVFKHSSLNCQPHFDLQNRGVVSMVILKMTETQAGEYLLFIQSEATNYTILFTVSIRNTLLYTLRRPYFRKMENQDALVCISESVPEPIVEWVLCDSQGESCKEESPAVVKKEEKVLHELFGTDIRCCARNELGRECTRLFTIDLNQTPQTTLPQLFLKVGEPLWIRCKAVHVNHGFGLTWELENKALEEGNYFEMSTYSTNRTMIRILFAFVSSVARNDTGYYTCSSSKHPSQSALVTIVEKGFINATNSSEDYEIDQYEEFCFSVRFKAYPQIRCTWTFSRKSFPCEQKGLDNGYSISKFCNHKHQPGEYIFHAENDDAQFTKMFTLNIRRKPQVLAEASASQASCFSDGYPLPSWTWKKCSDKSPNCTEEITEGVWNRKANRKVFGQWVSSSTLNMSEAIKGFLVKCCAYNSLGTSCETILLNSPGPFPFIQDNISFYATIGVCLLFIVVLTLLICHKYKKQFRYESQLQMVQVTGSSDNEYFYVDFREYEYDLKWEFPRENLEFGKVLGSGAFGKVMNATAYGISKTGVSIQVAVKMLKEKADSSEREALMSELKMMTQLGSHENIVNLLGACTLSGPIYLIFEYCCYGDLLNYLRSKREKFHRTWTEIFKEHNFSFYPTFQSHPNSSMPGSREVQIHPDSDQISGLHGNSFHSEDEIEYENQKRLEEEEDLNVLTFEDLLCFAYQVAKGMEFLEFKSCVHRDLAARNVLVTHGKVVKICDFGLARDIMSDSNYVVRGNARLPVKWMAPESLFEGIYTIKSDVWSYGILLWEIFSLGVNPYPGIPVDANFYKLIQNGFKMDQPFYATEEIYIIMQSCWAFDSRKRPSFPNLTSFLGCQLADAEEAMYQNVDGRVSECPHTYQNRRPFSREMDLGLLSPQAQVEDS

With ISOTYPE CTR (antibody) the MFI was 11500.
